From patent US10786543B2, “P75NTR antagonists and treatment of acute and chronic cardiac disease” (THE JOHNS HOPKINS UNIVERSITY, priority 2015, dated 2020) come the findings set out here.

Ends that are not written are not given here.

The target of assay [1] is T1, p75^NTR (Mus musculus, UniProt Q9Z0W1).
T1 construct: from tissue; host or cells: living mice (heart and other tissues) after transverse aortic constriction
T1 sequence (Q9Z0W1 32-427): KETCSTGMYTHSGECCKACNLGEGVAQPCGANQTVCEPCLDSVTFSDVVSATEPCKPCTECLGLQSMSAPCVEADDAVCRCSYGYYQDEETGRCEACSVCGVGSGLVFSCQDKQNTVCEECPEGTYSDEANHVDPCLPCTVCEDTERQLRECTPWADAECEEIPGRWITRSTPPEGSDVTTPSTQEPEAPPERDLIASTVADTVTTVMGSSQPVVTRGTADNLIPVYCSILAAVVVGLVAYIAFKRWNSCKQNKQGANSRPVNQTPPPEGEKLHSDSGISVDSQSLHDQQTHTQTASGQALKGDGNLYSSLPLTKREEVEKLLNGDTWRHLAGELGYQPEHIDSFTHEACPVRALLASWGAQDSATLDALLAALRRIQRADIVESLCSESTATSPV
Briefly: Transverse aortic constriction (TAC) pressure overload/heart failure with chronic P75NTR antagonist infusion, echocardiography. As to conditions: TAC mice; chronic infusion for 5 weeks, instituted 1 week after TAC; 200 μg/kg/day s.c. osmotic pump; FIG. 3. Format: in vivo. How it is done:
Transverse aortic constriction (TAC) was performed following a previously reported protocol (J. Clin. Invest., 2005; 115(5):1221-31; Circ. Res., 2010; 106(1):193-202; Antioxid Redox Signal 2014; 20(2):267-80). After induction of anesthesia and intubation, mice were placed on a volume ventilator (120 breaths/min, 1.2 ml/g/min) and anesthesia was maintained with […] isofluorane. The aortic arch was isolated and tied against a 27-gauge needle, resulting in a 65-70% constriction after the removal of the needle. The chest and skin were closed and animals extubated and allowed to fully recover. Sham-operated mice underwent the same operation except that after the aortic arch was isolated, no ligature was placed. The ALZET osmotic pump (Model 2004) with P75^NTR peptidic antagonist (200 μg/kg/day) or saline vehicle was placed subcutaneously one week after TAC. P75^NTR antagonistic cyclic peptide (CATDIKGAEC) (SEQ ID NO: 1) was synthesized at the Johns Hopkins Synthesis and Sequencing Facility. […]
In vivo cardiac morphology and function were assessed by serial M-mode echocardiography (Acuson Sequioa C256, 13 MHz transducer, Siemens, Pa.) performed in conscious mice. […] LV percent FS, EF and LV mass were calculated as described previously. […]

Assay [2] has as its system isolated healthy mouse myocytes. Briefly: Sarcomere shortening and whole Ca^2+ transient in isolated healthy mouse myocytes. Format: cell-based. As to conditions: directly applied to isolated healthy mouse myocytes. How it is done: Isolation of rat and mouse ventricular myocytes was carried out as previously described and approved by the Animal Care and Use Committee of Johns Hopkins University. Mice were anesthetized with intraperitoneal pentobarbital sodium (100 mg/kg). To assess for sarcomere shortening, cells were imaged using field stimulation (0.5 Hz) in an inverted fluorescence microscope (Diaphot 200; Nikon, Inc). Sarcomere length was measured by real-time Fourier transform (IonOptix MyoCam, CCCD100M). Twitch amplitude is expressed as a percentage of resting cell length. Twitch kinetics was quantified by measuring the time to peak shortening and the time from peak shortening to 50% relaxation. For whole Ca^2+ transient measurements, myocytes were loaded with the Ca^2+ indicator fluo-4/A M (Molecular Probes, 20 μM for 30 min) and Ca^2+ transients were measured under field-stimulation (0.5 Hz) in perfusion solution by confocal laser scanning microscope (LSM510, Carl Zeiss). Digital image analysis used customer-designed programs coded in Interactive Data Language (IDL).

Assay [3] concerns control mouse hearts. Put plainly: LV function and coronary tone in Langendorff-perfused control mouse hearts infused with proBDNF. From the text: (§1) After anesthesia, hearts were harvested and the aorta cannulated and retrogradely perfused with Krebs-Henseleit (KH) buffer warmed and gassed with 95% O2 and 5% CO2, as reported previously (Antioxid. Redox Signal, 2013; 19(11):1185-97). Briefly, hearts were paced at 600 bpm (10 Hz, 4 ms duration, 4 V) and LV function monitored with a water-filled balloon, connected to a pressure transducer coupled to a continuous data recording system. After stabilization, in addition to LV function parameters, baseline values of coronary perfusion pressure (CPP) were obtained through a side-arm of the aortic cannula connected to a separate pressure transducer.

Assay [4] relates to isolated p75^NTR-/- whole hearts. Briefly: LV function and coronary tone in Langendorff-perfused isolated p75^NTR-/- whole hearts infused with proBDNF. Also on record: species or system mouse. The settings on record: hearts of mice lacking p75^NTR; FIG. 7.
Text: as §1

Consider CATDIKGAEC (also: cyclic), for which the LV ejection fraction entry in assay [1] was “preserved”.

B1: proBDNF: uncleaved (immature) neurotrophin, pro-brain derived neurotrophic factor, activates p75^NTR (protein, UniProt P23560 19-247, looked up)
pro-form: APMKEANIRGQGGLAYPGVRTHGTLESVNGPKAGSRGLTSLADTFEHVIEELLDEDQKVRPNEENNKDADLYTSRVMLSSQVPLEPPLLFLLEEYKNYLDAANMSMRVRRHSDPARRGELSVCDSISEWVTAADKKTAVDMSGGTVTVLEKVPVSKGQLKQYFYETKCNPMGYTKEGCRGIDKRHWNSQCRTTQSYVRALTMDSKKRIGWRFIRIDTSCVCTLTIKRGR
modifications: pro-form
In the case of B1, in assay [2] (FIGS. 5 and 6 lower panels), the “amplitude of the whole Ca^2+ transient” value was “reduces” and the “diastolic Ca^2+ levels” value is reported as “rise”. Moreover, the “contractility (extent of sarcomere shortening)” value in assay [2] (FIGS. 5 and 6 upper panels) is “reduces”. Also, the “coronary perfusion pressure (CPP), vasoconstriction” value in assay [3] (FIG. 4A) is “markedly higher”. Besides, in assay [3] (FIG. 4F), the “overall left-ventricle (LV) function: relaxation” value is given as “reducing”. The “overall left-ventricle (LV) function: contractility” value in assay [3] (FIGS. 4B, D and E) is listed as “reducing”. Further, in assay [4], the LV function entry is on record as “does not alter” and the coronary vascular tone entry is recorded as “does not alter”.
